Measured values taken from IntAct's records for PubMed 29892012.

Legend:
[1] = target: aagab_human AAGAB (UniProt Q6PD74)
[2] = target: T1, dest_human DSTN (UniProt P60981)
T1 sequence: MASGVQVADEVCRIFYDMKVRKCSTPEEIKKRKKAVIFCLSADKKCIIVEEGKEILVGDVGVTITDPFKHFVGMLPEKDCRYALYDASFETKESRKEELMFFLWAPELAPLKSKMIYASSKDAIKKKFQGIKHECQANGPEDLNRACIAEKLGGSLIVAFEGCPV

[3] = target: ntaq1_human NTAQ1 (UniProt Q96HA8)
[4] = target: creb3_human CREB3 (UniProt O43889)
[5] = target: ctsr1_human CATSPER1 (UniProt Q8NEC5)
[6] = target: itf2_human TCF4 (UniProt P15884)
[7] = target: inca1_human INCA1 (UniProt Q0VD86)
[8] = target: cep76_human CEP76 (UniProt Q8TAP6)
[9] = target: kr108_human KRTAP10-8 (UniProt P60410)
[10] = target: gors2_human GORASP2 (UniProt Q9H8Y8)
[11] = target: dpyl3_human DPYSL3 (UniProt Q14195)
[12] = target: T2, dpyl5_human DPYSL5 (UniProt Q9BPU6)
T2 sequence: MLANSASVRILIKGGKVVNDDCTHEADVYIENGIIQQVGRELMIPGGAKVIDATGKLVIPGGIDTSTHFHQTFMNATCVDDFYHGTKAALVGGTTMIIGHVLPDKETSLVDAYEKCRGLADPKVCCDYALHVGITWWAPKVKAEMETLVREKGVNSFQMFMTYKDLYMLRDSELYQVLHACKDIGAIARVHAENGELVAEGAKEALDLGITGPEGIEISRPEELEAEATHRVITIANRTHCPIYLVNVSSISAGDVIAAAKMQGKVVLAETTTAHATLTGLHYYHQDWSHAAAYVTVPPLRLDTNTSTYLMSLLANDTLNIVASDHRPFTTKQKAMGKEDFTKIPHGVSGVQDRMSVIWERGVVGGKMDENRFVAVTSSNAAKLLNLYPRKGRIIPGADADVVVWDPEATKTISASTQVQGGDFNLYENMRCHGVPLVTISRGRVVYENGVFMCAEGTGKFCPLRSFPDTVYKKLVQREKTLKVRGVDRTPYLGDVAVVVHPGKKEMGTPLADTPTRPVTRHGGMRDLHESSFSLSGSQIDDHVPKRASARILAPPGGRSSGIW

[13] = target: dpyl2_human DPYSL2 (UniProt Q16555)
[14] = target: cirbp_human CIRBP (UniProt Q14011)
[15] = target: rbm7_human RBM7 (UniProt Q9Y580)
[16] = target: pex39_human PEX39 (UniProt Q5I0X4)
[17] = target: prr3_human PRR3 (UniProt P79522)
[18] = target: ytdc1_human YTHDC1 (UniProt Q96MU7)
[19] = target: tyk2_human TYK2 (UniProt P29597)
[20] = target: qki_human QKI (UniProt Q96PU8)
[21] = target: U2AF1 (UniProt Q01081)
[22] = target: rbm42_human RBM42 (UniProt Q9BTD8)
[23] = target: abi2_human ABI2 (UniProt Q9NYB9)
[24] = target: grap2_human GRAP2 (UniProt O75791)
[25] = target: ZNF385C (UniProt Q66K41)
[26] = target: hnrll_human HNRNPLL (UniProt Q8WVV9)
[27] = target: zbt24_human ZBTB24 (UniProt O43167)
[28] = target: aakb2_human PRKAB2 (UniProt O43741)
[29] = target: erep1_human ENTREP1 (UniProt Q15884)
[30] = target: hnrl1_human HNRNPUL1 (UniProt Q9BUJ2)
[31] = target: pdli7_human PDLIM7 (UniProt Q9NR12)
[32] = target: leg9b_human LGALS9B (UniProt Q3B8N2)
[33] = target: fxl18_human FBXL18 (UniProt Q96ME1)
[34] = target: tri23_human TRIM23 (UniProt P36406)
[35] = target: taso2_human TASOR2 (UniProt Q5VWN6)
[36] = target: inca1_human INCA1 (UniProt Q0VD86); remark: listed apart in the source
[37] = target: ikzf3_human IKZF3 (UniProt Q9UKT9)
[38] = target: neca2_human NECAB2 (UniProt Q7Z6G3)
[39] = target: itf2_human TCF4 (UniProt P15884); remark: listed apart in the source
[40] = target: kr108_human KRTAP10-8 (UniProt P60410); remark: listed apart in the source
[41] = target: efs_human EFS (UniProt O43281)
[42] = target: stat3_human STAT3 (UniProt P40763)
[43] = target: zn446_human ZNF446 (UniProt Q9NWS9)
[44] = target: mdfi_human MDFI (UniProt Q99750)
[45] = target: kr103_human KRTAP10-3 (UniProt P60369)
[46] = target: kr105_human KRTAP10-5 (UniProt P60370)
[47] = target: kr101_human KRTAP10-1 (UniProt P60331)

Sequence of Zinc finger protein 559 (Homo sapiens), Q9BR84 K62I (Q9BR84 whole entry K62I): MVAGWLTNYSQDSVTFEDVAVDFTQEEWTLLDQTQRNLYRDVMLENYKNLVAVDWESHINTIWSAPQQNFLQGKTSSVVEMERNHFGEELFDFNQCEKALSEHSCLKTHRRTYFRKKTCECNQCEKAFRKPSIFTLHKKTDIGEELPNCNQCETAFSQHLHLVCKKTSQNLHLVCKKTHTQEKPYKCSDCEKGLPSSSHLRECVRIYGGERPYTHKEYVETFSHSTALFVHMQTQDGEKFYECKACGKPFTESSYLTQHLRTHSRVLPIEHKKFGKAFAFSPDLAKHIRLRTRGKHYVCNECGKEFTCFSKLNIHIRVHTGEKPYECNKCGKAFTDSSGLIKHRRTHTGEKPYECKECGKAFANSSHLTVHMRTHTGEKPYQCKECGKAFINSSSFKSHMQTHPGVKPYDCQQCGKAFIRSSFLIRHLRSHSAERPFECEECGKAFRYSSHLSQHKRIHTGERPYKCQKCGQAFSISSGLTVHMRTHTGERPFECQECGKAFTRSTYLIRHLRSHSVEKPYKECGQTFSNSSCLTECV
Sequence of Serine/threonine-protein kinase Nek6 (Homo sapiens), Q9HC98 R195C (Q9HC98 whole entry R195C): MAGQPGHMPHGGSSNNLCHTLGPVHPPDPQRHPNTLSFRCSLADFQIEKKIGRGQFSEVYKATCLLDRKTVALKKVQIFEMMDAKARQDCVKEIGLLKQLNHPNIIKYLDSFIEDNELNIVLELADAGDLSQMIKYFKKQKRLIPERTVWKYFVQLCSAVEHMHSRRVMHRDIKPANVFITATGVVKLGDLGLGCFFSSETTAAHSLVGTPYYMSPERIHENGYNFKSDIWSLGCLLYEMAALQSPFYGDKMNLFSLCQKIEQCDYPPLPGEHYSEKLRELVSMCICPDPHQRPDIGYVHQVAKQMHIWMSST
Sequence of itf2_human TCF4 (P15884 whole entry): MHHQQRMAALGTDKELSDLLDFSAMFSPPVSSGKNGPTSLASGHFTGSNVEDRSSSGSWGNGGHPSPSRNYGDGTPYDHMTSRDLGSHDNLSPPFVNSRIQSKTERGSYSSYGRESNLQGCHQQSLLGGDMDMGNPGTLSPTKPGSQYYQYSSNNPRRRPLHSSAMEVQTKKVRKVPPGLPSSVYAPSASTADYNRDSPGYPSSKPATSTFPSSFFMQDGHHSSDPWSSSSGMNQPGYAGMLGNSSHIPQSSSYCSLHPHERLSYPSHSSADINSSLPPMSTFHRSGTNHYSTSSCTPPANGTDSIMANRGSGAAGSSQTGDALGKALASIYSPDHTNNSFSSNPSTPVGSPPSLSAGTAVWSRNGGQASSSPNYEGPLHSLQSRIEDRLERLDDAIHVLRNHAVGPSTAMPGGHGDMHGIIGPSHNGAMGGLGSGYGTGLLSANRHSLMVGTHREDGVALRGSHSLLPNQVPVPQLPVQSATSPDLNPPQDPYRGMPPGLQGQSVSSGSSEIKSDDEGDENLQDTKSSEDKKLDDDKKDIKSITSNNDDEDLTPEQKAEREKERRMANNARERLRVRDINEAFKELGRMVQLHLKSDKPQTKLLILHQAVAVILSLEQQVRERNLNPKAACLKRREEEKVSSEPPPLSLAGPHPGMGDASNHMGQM
Sequence of Apolipoprotein A-II (Homo sapiens), P02652 Q71R (P02652 whole entry Q71R): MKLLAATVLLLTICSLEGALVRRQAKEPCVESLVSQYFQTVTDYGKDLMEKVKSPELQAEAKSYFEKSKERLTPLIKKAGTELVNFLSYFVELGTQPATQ
Sequence of inca1_human INCA1 (Q0VD86 whole entry): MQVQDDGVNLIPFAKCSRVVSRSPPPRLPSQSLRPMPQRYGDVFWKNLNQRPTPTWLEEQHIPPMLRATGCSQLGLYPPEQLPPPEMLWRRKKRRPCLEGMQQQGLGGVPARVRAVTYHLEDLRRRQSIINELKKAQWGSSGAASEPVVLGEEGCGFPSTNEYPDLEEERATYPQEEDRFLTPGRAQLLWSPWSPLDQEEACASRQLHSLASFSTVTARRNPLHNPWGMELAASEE
Sequence of kr108_human KRTAP10-8 (P60410 whole entry): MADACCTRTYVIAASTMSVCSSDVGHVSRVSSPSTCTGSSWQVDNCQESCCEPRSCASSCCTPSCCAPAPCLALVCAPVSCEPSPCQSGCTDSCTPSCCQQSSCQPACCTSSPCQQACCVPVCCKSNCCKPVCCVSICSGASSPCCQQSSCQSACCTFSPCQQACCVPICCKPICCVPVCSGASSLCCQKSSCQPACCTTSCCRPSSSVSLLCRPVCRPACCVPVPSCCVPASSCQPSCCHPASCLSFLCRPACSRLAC
Sequence of Tyrosine-protein kinase Blk (Homo sapiens), P51451 I338T (P51451 whole entry I338T): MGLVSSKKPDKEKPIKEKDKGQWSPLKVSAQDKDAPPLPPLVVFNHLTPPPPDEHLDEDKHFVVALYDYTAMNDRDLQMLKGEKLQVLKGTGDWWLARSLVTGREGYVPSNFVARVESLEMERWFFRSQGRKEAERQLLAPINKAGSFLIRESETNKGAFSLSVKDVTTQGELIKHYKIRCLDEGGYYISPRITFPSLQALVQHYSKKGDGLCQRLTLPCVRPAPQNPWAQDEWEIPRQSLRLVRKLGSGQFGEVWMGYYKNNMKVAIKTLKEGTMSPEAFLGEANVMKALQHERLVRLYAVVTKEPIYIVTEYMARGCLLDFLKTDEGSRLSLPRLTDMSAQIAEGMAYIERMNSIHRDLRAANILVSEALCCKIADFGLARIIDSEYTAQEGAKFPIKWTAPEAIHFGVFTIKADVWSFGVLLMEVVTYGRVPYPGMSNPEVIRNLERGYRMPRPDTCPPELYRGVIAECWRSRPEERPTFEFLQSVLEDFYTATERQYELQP
Sequence of zbt24_human ZBTB24 (O43167 whole entry): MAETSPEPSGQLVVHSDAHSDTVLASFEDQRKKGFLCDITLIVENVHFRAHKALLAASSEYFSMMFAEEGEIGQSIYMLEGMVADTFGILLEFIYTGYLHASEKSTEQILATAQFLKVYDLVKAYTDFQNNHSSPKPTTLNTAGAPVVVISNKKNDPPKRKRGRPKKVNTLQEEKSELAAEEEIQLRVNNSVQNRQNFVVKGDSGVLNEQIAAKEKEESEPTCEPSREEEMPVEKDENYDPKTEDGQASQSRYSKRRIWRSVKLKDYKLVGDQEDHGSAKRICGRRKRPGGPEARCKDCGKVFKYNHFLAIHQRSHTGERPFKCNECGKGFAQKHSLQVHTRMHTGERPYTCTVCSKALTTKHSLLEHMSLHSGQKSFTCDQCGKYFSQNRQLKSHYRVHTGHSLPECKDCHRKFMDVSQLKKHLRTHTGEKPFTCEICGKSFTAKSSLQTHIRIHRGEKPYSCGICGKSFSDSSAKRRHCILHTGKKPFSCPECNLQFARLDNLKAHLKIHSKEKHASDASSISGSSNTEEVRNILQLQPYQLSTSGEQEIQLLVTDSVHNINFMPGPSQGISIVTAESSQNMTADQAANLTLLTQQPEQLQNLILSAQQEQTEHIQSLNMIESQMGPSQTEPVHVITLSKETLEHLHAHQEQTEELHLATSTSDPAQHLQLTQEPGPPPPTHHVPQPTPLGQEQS
Sequence of U2AF1 (Q01081 whole entry): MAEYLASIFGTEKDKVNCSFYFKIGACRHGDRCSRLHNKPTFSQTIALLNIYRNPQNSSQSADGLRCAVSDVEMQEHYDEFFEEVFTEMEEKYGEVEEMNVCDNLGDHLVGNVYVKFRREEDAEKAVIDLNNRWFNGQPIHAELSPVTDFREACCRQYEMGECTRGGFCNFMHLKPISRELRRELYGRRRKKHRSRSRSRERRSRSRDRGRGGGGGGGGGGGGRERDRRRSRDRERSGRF
Sequence of rbm42_human RBM42 (Q9BTD8 whole entry): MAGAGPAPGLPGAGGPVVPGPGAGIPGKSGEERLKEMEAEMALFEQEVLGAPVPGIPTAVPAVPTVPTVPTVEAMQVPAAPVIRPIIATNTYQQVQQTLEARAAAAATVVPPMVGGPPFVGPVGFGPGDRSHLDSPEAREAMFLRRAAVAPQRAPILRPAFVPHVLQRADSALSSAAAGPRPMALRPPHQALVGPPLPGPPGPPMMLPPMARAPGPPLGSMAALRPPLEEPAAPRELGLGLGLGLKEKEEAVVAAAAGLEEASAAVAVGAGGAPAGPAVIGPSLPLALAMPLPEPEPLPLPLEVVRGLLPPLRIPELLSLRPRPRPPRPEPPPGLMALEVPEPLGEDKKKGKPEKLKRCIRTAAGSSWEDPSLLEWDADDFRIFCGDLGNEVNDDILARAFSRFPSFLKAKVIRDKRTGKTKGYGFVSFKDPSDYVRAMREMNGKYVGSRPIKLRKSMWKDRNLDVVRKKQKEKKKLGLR
Sequence of grap2_human GRAP2 (O75791 whole entry): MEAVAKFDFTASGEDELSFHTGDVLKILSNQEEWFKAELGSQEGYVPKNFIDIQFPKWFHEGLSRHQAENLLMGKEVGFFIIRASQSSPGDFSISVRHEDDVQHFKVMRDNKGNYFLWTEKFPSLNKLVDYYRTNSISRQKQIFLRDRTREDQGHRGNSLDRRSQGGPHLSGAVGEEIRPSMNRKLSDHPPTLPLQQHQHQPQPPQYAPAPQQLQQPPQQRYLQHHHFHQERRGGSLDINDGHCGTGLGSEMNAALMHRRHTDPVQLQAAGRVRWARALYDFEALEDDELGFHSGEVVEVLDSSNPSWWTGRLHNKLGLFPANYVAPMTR
Sequence of rbm7_human RBM7 (Q9Y580 whole entry): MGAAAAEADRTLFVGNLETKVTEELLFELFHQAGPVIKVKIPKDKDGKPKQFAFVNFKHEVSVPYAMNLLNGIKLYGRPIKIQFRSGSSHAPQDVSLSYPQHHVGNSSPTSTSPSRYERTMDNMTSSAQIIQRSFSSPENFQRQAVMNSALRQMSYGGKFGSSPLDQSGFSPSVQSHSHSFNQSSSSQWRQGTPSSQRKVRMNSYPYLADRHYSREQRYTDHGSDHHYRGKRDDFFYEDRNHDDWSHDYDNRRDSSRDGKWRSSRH
Sequence of ntaq1_human NTAQ1 (Q96HA8 whole entry): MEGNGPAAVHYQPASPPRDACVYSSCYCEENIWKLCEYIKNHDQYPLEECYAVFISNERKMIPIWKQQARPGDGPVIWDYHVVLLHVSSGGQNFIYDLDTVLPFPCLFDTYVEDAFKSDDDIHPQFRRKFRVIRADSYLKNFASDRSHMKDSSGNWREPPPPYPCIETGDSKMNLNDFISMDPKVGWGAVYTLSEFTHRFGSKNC

Q: For “AP-2 complex subunit sigma (Homo sapiens), P53680 G64D”, which “effect of a mutation on the interaction” value [1] is on record?
A: with no effect

Q: What does the source list for “Actin, cytoplasmic 1 (Homo sapiens) (from UniProt P60709) R372C”?
A: effect of a mutation on the interaction [2]: with no effect; effect of a mutation on the interaction [3]: with no effect

Q: For “Apolipoprotein A-II (Homo sapiens), P02652 Q71R”, which “effect of a mutation on the interaction” value [4] is on record?
A: with no effect

Q: What about the “effect of a mutation on the interaction” value [5] of the same substance?
A: with no effect

Q: With “Calcium-binding protein 5 (Homo sapiens), Q9NP86 T59M” as the substance, how does the “effect of a mutation on the interaction” value [6] read?
A: with no effect

Q: And the “effect of a mutation on the interaction” value [7]?
A: with no effect

Q: And the “effect of a mutation on the interaction” value [8]?
A: with no effect

Q: “Cyclin-J-like protein (Homo sapiens), Q8IV13 W188R” was tested. Which “effect of a mutation on the interaction” value [9] did it give?
A: with no effect

Q: Which results are given for “Dihydropyrimidinase-related protein 2 (Homo sapiens) (from UniProt Q16555) R496C”?
A: effect of a mutation on the interaction [10]: disrupting interaction strength; effect of a mutation on the interaction [11]: with no effect; effect of a mutation on the interaction [12]: with no effect

Q: For “Dihydropyrimidinase-related protein 3 (Homo sapiens), Q14195 V25I”, which “effect of a mutation on the interaction” value [13] is on record?
A: with no effect

Q: Which “effect of a mutation on the interaction” value [14] does the source give for “Heterogeneous nuclear ribonucleoprotein K (Homo sapiens), P61978 R377H” here?
A: with no effect

Q: What about the “effect of a mutation on the interaction” value [15] of the same substance?
A: with no effect

Q: What about the “effect of a mutation on the interaction” value [16] of the same substance?
A: with no effect

Q: And the “effect of a mutation on the interaction” value [17]?
A: with no effect

Q: What about the “effect of a mutation on the interaction” value [18] of the same substance?
A: with no effect

Q: What about the “effect of a mutation on the interaction” value [19] of the same substance?
A: with no effect

Q: And the “effect of a mutation on the interaction” value [20]?
A: with no effect

Q: What about the “effect of a mutation on the interaction” value [21] of the same substance?
A: with no effect

Q: And the “effect of a mutation on the interaction” value [22]?
A: with no effect

Q: What about the “effect of a mutation on the interaction” value [23] of the same substance?
A: with no effect

Q: And the “effect of a mutation on the interaction” value [24]?
A: with no effect

Q: What about the “effect of a mutation on the interaction” value [25] of the same substance?
A: with no effect

Q: What about the “effect of a mutation on the interaction” value [26] of the same substance?
A: with no effect

Q: Which “effect of a mutation on the interaction” value [27] does the source give for “Krueppel-like factor 15 (Homo sapiens), Q9UIH9 G206R” here?
A: with no effect

Q: And the “effect of a mutation on the interaction” value [28]?
A: with no effect

Q: With “NEDD4-like E3 ubiquitin-protein ligase WWP2 (Homo sapiens), O00308 R178W” as the substance, how does the “effect of a mutation on the interaction” value [29] read?
A: with no effect

Q: And the “effect of a mutation on the interaction” value [30]?
A: with no effect

Q: And the “effect of a mutation on the interaction” value [31]?
A: with no effect

Q: What about the “effect of a mutation on the interaction” value [32] of the same substance?
A: with no effect

Q: What about the “effect of a mutation on the interaction” value [33] of the same substance?
A: with no effect

Q: What does the source list for “Serine/threonine-protein kinase Nek6 (Homo sapiens), Q9HC98 R195C”?
A: effect of a mutation on the interaction [34]: disrupting interaction strength; effect of a mutation on the interaction [35]: disrupting interaction strength; effect of a mutation on the interaction [36]: with no effect; effect of a mutation on the interaction [37]: disrupting interaction strength; effect of a mutation on the interaction [38]: disrupting interaction strength; effect of a mutation on the interaction [39]: with no effect

Q: For “Solute carrier family 23 member 1 (Homo sapiens), Q9UHI7 L461M”, which “effect of a mutation on the interaction” value [40] is on record?
A: with no effect

Q: With “Tyrosine-protein kinase Blk (Homo sapiens), P51451 I338T” as the substance, how does the “effect of a mutation on the interaction” value [41] read?
A: with no effect

Q: What about the “effect of a mutation on the interaction” value [42] of the same substance?
A: disrupting interaction strength

Q: For “Zinc finger and SCAN domain-containing protein 30 (Homo sapiens), Q86W11 G186S”, which “effect of a mutation on the interaction” value [43] is on record?
A: with no effect

Q: Which results are given for “Zinc finger protein 559 (Homo sapiens), Q9BR84 K62I”?
A: effect of a mutation on the interaction [44]: with no effect; effect of a mutation on the interaction [45]: with no effect; effect of a mutation on the interaction [46]: with no effect; effect of a mutation on the interaction [47]: with no effect
